Experimental data published in publication PMC7305236.
No end group written: not given here.

How the values were obtained:
[1] = target: ACKR3 C-terminally tagged with SmBiT (human) (UniProt P25106)
[2] = target: delta opioid receptor (DOR) C-terminally tagged with SmBiT (UniProt P41143)
[3] = target: kappa opioid receptor (KOR) C-terminally tagged with SmBiT (UniProt P41145)
[4] = target: mu opioid receptor (MOR) C-terminally tagged with SmBiT (UniProt P35372)
[5] = target: atypical chemokine receptor ACKR3 (formerly CXCR7) (human) (UniProt P25106)
[6] = target: ACKR3 C-terminally tagged with SmBiT (human) (UniProt P25106); remark: listed apart in the source
[7] = target: ACKR3 C-terminally tagged with SmBiT (human) (UniProt P25106); remark: listed apart in the source

atypical chemokine receptor ACKR3 (formerly CXCR7) (human), sequence (P25106 whole entry): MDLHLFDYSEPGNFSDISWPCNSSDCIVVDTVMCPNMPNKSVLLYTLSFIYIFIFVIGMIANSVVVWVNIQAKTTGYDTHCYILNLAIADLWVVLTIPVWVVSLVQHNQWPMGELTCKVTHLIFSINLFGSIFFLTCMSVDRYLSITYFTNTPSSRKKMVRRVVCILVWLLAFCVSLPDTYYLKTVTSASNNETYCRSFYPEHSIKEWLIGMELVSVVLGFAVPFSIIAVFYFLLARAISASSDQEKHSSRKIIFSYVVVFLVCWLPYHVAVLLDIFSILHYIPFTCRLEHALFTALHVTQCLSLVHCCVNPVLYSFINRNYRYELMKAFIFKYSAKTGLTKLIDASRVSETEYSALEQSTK
ACKR3 C-terminally tagged with SmBiT (human), sequence (P25106 whole entry): as above

**Q.** YGGFMRRVGRPEWWMDYQKRYG [BAM22] was tested. Which β-arrestin-1 recruitment (NanoBiT, U87 cells): EC50 [1] did it give?
**A.** The β-arrestin-1 recruitment (NanoBiT, U87 cells): EC50 was 23.5 nM.

**Q.** And the β-arrestin-1 recruitment (NanoBiT, U87 cells): EC50 [2]?
**A.** The β-arrestin-1 recruitment (NanoBiT, U87 cells): EC50 was 367 nM.

**Q.** What about the β-arrestin-1 recruitment (NanoBiT, U87 cells): EC50 [3] of the same binder?
**A.** Its β-arrestin-1 recruitment (NanoBiT, U87 cells): EC50 is 44.2 nM.

**Q.** And the β-arrestin-1 recruitment (NanoBiT, U87 cells): EC50 [4]?
**A.** The β-arrestin-1 recruitment (NanoBiT, U87 cells): EC50 was 10 nM.

**Q.** With FGGFMRRFR-NH2 as the binder, how does the Supplementary Table 5: EC50 of β-arrestin-1 recruitment to ACKR3 [5] read?
**A.** The Supplementary Table 5: EC50 of β-arrestin-1 recruitment to ACKR3 was 16.3 nM.

**Q.** Which results are given for YGGFM [Met enkephalin]?
**A.** β-arrestin-1 recruitment (NanoBiT, U87 cells): EC50 [2]: 16.3 nM; β-arrestin-1 recruitment (NanoBiT, U87 cells): EC50 [4]: 419 nM

B1: CXCL11 (ligand)
chain: FPMFKRGRCLCIGPGVKAVKVADIEKASIMYPSNNCDKIEVIITLKENKGQRCLNPKSKQARLIIKKVERKNF
**Q.** For B1, which β-arrestin recruitment to ACKR3 (Fig. 4b): EC50 [6] is on record?
**A.** The β-arrestin recruitment to ACKR3 (Fig. 4b): EC50 was 2.2 nM.

**Q.** How did the Supplementary Table 5: EC50 of β-arrestin-1 recruitment to ACKR3 [5] turn out when FGGWMRRFR-NH2 was run?
**A.** The Supplementary Table 5: EC50 of β-arrestin-1 recruitment to ACKR3 was 19.1 nM.

**Q.** With FGGFMRRV-NH2 [adrenorphin Y1F variant] as the binder, how does the potency in β-arrestin-1 recruitment against wild-type adrenorphin (U87 cells) [7] read?
**A.** Its potency in β-arrestin-1 recruitment against wild-type adrenorphin (U87 cells) is 10 fold.

**Q.** How did the Supplementary Table 5: EC50 of β-arrestin-1 recruitment to ACKR3 [5] turn out when FGGWMRRF-NH2 [second-generation peptide FGGWMRRF] was run?
**A.** Its Supplementary Table 5: EC50 of β-arrestin-1 recruitment to ACKR3 is 19.1 nM.
